Experiment [1] has as its target Pelotomaculum thermopropionicum HmfF dimer variant (A315N, N348R, F351D, T355N, A388P, F393T, V395F, M399R) (Pelotomaculum thermopropionicum). The experiment in a line: SEC-MALS; 25 °C; 500 μL of 1.5 mg/mL protein on Superdex 200 10/300GL; 200 mM KCl, 1 mM MnCl2, 50 mM Tris pH 7.5; 0.75 mL/min. Background: SEC sorts molecules by how far they enter the pores of the column.

For experiment [2] the target is unchanged. The experiment is described as follows: crystal structure; PtHmfF dimer variant with prFMN, crystals grown at 4 °C, 2.3 Å, molecular replacement with the WT monomer; two monomers in the asymmetric unit.
Experiment [3] has as its target Pelotomaculum thermopropionicum 2,5-furandicarboxylic acid decarboxylase (HmfF), wild type, untagged (Pelotomaculum thermopropionicum). The experiment in a line: crystal structure; untagged PtHmfF, space group P21, crystals soaked with FMN in the presence of K+ and Mn2+, data to 2.7 Å, six monomers in the asymmetric unit; solved by Se-Met SAD.
In experiment [4] the target is T1, PtHmfF (P. thermopropionicum HmfF) (Pelotomaculum thermopropionicum, UniProt A5D4Z9).
T1 construct: gene UbiD; codon-optimised, full length; pET30a C-terminal His-tag from E. coli BL21(DE3), coexpressed with E. coli UbiX; untagged (pET21b) for crystals; hexamer (D3); The eightfold dimer variant is in pET28a (His-tag)
The experiment in a line: in vitro reconstitution of apo-enzyme; UV-vis spectra and activity. In kind it is biochemical. Particulars: reduced prFMN added anaerobically, then oxidative maturation in air; FDCA 900 μM, 25 °C.

Experiment [5] concerns the target T2, PtHmfF (P. thermopropionicum HmfF) (Pelotomaculum thermopropionicum, UniProt A5D4Z9, A315N/N348R/F351D/T355N/A388P/F393T/V395F/M399R).
T2 construct: gene UbiD; codon-optimised, full length; pET30a C-terminal His-tag from E. coli BL21(DE3), coexpressed with E. coli UbiX; untagged (pET21b) for crystals; hexamer (D3); The eightfold dimer variant is in pET28a (His-tag)
The experiment in a line: X-ray crystal structure, […] Å. In kind it is binding. As to conditions: dimer variant; cofactor copurified from UbiX coexpression.

Experiment [6] concerns the target T1, PtHmfF (P. thermopropionicum HmfF). The experiment in a line: X-ray crystal structure, […] Å, FMN soak. In kind it is binding. Particulars: K+ and Mn2+ present; stable analogue in prFMN site; untagged enzyme.

“Pelotomaculum thermopropionicum HmfF dimer variant (A315N, N348R, F351D, T355N, A388P, F393T, V395F, M399R) (enzyme)”: the stoichiometry N in experiment [1] and in experiment [2] was 2 each time. For the compound “Pelotomaculum thermopropionicum 2,5-furandicarboxylic acid decarboxylase (HmfF), wild type, untagged (enzyme)”, the stoichiometry N in experiment [3] is 6. Take `Cc1cc2c3c(c1C)C(C)(C)CC=[N+]3c1c([nH]c(=O)[nH]c1=O)N2C[C@H](O)[C@H](O)[C@H](O)COP(=O)(O)O` [prFMN]: in experiment [4], the “in vitro reconstitution of apo-enzyme; UV-vis spectra and activity” value was “HmfF requires oxidative maturation of prFMN for activity”. Besides, the “X-ray crystal structure, 2.3 Å” value in experiment [5] was “the dimer variant crystals contain prFMN in the active site”.

For the compound `Cc1cc2nc3c(=O)[nH]c(=O)nc-3n(C[C@H](O)[C@H](O)[C@H](O)COP(=O)(O)O)c2cc1C` [FMN], the “X-ray crystal structure, 2.7 Å, FMN soak” value in experiment [6] was “revealing clear electron density for both the FMN and the associated metal ions”.

A word on the stoichiometry N: it is the number of molecules, sites or subunits per partner or assembly.

Source of the values: article PMC6497424 (ACS Catalysis, 2019).
